target: MERTK (UniProt Q12866); assay: phosphorylation enrichment, bacterial display (enrichment ratio); higher = better substrate or ligand; peptides without Tyr show the background
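Also: 11-residue human phosphosite peptides and single-mutation variants displayed on the E. coli surface, counted by deep sequencing, each peptide's frequency after selection divided by its frequency in the unselected input library; frequency after pTyr selection over input frequency; kinase dosed for 20-30% of maximal phosphorylation in three min.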

MERTK, sequence (Q12866 whole entry, looked up): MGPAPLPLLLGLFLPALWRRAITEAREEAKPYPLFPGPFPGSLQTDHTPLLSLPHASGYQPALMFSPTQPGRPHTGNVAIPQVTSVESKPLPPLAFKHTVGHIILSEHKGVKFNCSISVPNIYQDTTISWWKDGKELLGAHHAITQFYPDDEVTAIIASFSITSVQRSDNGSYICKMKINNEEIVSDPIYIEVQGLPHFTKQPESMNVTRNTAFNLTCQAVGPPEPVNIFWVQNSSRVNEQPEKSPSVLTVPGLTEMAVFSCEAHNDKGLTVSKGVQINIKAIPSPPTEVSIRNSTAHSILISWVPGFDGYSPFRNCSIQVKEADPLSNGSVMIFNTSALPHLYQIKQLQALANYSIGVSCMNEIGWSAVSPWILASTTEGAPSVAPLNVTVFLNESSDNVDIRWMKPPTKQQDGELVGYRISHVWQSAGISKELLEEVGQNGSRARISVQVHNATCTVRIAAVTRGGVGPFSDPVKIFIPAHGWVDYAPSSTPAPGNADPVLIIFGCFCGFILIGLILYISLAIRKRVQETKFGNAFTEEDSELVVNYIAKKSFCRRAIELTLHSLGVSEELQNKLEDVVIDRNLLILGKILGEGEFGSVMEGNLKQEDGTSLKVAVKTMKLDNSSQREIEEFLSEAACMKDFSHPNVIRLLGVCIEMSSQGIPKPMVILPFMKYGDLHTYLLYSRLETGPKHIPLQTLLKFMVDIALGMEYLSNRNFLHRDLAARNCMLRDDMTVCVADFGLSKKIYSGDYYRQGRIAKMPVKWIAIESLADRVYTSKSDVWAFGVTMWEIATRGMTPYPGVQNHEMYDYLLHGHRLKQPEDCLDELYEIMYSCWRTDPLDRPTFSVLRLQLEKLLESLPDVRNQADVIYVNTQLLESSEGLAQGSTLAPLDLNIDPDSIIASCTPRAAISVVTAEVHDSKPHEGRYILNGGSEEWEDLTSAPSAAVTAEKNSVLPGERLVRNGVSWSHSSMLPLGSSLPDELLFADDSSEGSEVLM

Sequence	phosphorylation enrichment
PIYEGYGLPHA [ACTA1_Y171_A172G]	18.3
PSALGYSPSLR [LLGL2_Y40]	0.712
IAAEFYDNLPH [DEGS1_Y284_YF]	0.687
EREFKYGAHKF [OAT_Y50_N54K_YF]	0.392
NLVSEYQQFQD [TUBB3_Y422_D417N_YF]	0.429
QFKGKYLAKHN [CASK_Y712_D710G_YF]	0.632
KRIKSYNQEND [RPGRIP1L_Y448_L447S]	0.43
IIQRAYRGHLL [SCN1A_Y1926_R1928G]	0.47
LFEDRYLLGPS [ASS1_Y87_T91P_YF]	0.58
KNDSIYVVKGN [KIT_Y823_N822I]	0.443
RRIHCYRGHLW [VHL_Y112_S111C]	0.556
GRGMPYGGRGD [TGM1_Y312_R307G]	0.379
CLNAIYQNNLT [GSR_Y158_R153C]	0.563
RKLVDYNSARH [BIN1_Y150_D151N]	0.393
GEDPIYVTLEG [RTKtide_2018]	2.29
RLLRGHDQYAY [HLA-B_Y137]	0.473
YTGNTYRVGDT [FN1_Y106]	0.389

Sequence	phosphorylation enrichment
LHSEAYLKYIE [PBRM1_Y1610]	0.678
VDGSVYELHPS [GCK_Y413_K414E]	3.82
EPGSLYGCGGG [ATM_Y2019_D2016G]	0.634
DTMQTYNGNDE [TSPAN7_Y131_A127T]	0.382
KKGMIYGGGGG [PSME1_Y249_T244K]	0.381
YNDSAYNQQLI [ZPLD1_Y198_T197A]	0.388
PKFHSYVSLPF [PLXNA2_Y293]	1.22
SIKDKYVTAFF [KCNH2_Y611_L615F_YF]	0.369
TVFSDYLHPQF [CCPG1_Y569_YF]	0.805
AIDDKYSRREE [SART1_Y685]	0.439
AGIKAYQSCLQ [ADGRA2_Y377_T375K]	0.558
YRASYYRRGDR [LTK_Y677]	0.603
YLELNYKEDEY [MME_Y502]	0.923
GIYEDYVEGLR [MYL6_Y89_T85I]	1.42
EILLSYPRTGY [TGM1_Y365_L366P]	0.379
ITRDEYPSNPM [CEMIP2_Y1015]	0.329

target: FGFR1 (UniProt P11362); assay: as above
Sequence (P11362 whole entry, looked up): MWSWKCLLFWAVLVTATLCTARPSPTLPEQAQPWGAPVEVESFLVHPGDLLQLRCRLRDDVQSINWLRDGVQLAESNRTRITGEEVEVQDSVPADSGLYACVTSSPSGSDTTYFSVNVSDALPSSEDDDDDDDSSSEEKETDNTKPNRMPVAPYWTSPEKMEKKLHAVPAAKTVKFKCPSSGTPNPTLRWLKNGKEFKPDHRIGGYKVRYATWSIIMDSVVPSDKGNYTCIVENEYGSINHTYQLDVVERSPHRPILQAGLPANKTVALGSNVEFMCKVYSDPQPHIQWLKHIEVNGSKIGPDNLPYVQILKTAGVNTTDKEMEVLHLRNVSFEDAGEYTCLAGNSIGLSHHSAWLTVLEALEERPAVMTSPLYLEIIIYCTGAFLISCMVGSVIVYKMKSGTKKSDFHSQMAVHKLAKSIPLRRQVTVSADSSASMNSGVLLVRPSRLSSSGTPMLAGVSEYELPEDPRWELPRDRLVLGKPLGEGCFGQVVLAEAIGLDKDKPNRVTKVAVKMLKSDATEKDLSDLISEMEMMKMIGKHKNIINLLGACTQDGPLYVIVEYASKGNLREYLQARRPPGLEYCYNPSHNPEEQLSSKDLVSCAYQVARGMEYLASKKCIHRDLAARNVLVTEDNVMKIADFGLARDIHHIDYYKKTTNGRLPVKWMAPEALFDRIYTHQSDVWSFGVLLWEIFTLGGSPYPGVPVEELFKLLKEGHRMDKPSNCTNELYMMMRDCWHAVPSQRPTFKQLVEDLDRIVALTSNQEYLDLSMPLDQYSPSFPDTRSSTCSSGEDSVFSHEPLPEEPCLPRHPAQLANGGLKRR

Sequence	phosphorylation enrichment
PIYEGYGLPHA [ACTA1_Y171_A172G]	0.555
PSALGYSPSLR [LLGL2_Y40]	0.404
IAAEFYDNLPH [DEGS1_Y284_YF]	0.66
EREFKYGAHKF [OAT_Y50_N54K_YF]	0.424
NLVSEYQQFQD [TUBB3_Y422_D417N_YF]	0.545
QFKGKYLAKHN [CASK_Y712_D710G_YF]	0.498
KRIKSYNQEND [RPGRIP1L_Y448_L447S]	0.396
IIQRAYRGHLL [SCN1A_Y1926_R1928G]	0.447
LFEDRYLLGPS [ASS1_Y87_T91P_YF]	0.679
KNDSIYVVKGN [KIT_Y823_N822I]	0.39
RRIHCYRGHLW [VHL_Y112_S111C]	0.475
GRGMPYGGRGD [TGM1_Y312_R307G]	0.355
CLNAIYQNNLT [GSR_Y158_R153C]	0.479
RKLVDYNSARH [BIN1_Y150_D151N]	0.376
GEDPIYVTLEG [RTKtide_2018]	4.71
RLLRGHDQYAY [HLA-B_Y137]	0.69
YTGNTYRVGDT [FN1_Y106]	0.439

Sequence	phosphorylation enrichment
LHSEAYLKYIE [PBRM1_Y1610]	0.633
VDGSVYELHPS [GCK_Y413_K414E]	0.597
EPGSLYGCGGG [ATM_Y2019_D2016G]	0.52
DTMQTYNGNDE [TSPAN7_Y131_A127T]	0.695
KKGMIYGGGGG [PSME1_Y249_T244K]	0.407
YNDSAYNQQLI [ZPLD1_Y198_T197A]	0.499
PKFHSYVSLPF [PLXNA2_Y293]	1.86
SIKDKYVTAFF [KCNH2_Y611_L615F_YF]	0.403
TVFSDYLHPQF [CCPG1_Y569_YF]	1.03
AIDDKYSRREE [SART1_Y685]	0.488
AGIKAYQSCLQ [ADGRA2_Y377_T375K]	0.453
YRASYYRRGDR [LTK_Y677]	0.511
YLELNYKEDEY [MME_Y502]	4.36
GIYEDYVEGLR [MYL6_Y89_T85I]	0.965
EILLSYPRTGY [TGM1_Y365_L366P]	0.445
ITRDEYPSNPM [CEMIP2_Y1015]	0.426

target: Fes (UniProt P07332); assay: as above
Sequence (P07332 whole entry, looked up): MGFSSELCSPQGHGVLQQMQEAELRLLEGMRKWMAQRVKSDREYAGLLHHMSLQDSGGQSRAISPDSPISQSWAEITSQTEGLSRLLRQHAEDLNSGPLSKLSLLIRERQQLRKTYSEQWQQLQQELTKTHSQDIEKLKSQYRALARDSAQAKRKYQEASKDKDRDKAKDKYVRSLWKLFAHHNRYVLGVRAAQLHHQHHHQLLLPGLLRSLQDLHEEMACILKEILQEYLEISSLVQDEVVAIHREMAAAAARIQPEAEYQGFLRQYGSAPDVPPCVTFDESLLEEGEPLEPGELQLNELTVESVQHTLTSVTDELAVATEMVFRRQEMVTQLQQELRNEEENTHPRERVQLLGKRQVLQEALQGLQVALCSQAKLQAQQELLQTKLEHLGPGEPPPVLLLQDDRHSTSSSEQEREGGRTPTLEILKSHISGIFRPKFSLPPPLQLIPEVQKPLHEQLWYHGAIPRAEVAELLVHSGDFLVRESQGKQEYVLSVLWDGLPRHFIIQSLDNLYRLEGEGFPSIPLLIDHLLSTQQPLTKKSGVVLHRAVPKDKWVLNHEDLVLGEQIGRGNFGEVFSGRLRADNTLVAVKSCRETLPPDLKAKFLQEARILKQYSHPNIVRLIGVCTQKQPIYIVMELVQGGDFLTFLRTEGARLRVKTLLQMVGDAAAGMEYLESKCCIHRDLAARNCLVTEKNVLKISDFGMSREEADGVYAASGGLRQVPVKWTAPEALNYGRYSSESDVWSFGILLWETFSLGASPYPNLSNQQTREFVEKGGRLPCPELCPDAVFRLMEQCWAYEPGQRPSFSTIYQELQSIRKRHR

Sequence	phosphorylation enrichment
PIYEGYGLPHA [ACTA1_Y171_A172G]	2.45
PSALGYSPSLR [LLGL2_Y40]	0.887
IAAEFYDNLPH [DEGS1_Y284_YF]	0.79
EREFKYGAHKF [OAT_Y50_N54K_YF]	0.738
NLVSEYQQFQD [TUBB3_Y422_D417N_YF]	1.14
QFKGKYLAKHN [CASK_Y712_D710G_YF]	0.616
KRIKSYNQEND [RPGRIP1L_Y448_L447S]	0.53
IIQRAYRGHLL [SCN1A_Y1926_R1928G]	0.671
LFEDRYLLGPS [ASS1_Y87_T91P_YF]	1.42
KNDSIYVVKGN [KIT_Y823_N822I]	0.647
RRIHCYRGHLW [VHL_Y112_S111C]	1.17
GRGMPYGGRGD [TGM1_Y312_R307G]	0.476
CLNAIYQNNLT [GSR_Y158_R153C]	0.996
RKLVDYNSARH [BIN1_Y150_D151N]	0.568
GEDPIYVTLEG [RTKtide_2018]	1.47
RLLRGHDQYAY [HLA-B_Y137]	0.808
YTGNTYRVGDT [FN1_Y106]	0.775

Sequence	phosphorylation enrichment
LHSEAYLKYIE [PBRM1_Y1610]	0.994
VDGSVYELHPS [GCK_Y413_K414E]	1.09
EPGSLYGCGGG [ATM_Y2019_D2016G]	0.803
DTMQTYNGNDE [TSPAN7_Y131_A127T]	1.17
KKGMIYGGGGG [PSME1_Y249_T244K]	0.495
YNDSAYNQQLI [ZPLD1_Y198_T197A]	0.93
PKFHSYVSLPF [PLXNA2_Y293]	1.66
SIKDKYVTAFF [KCNH2_Y611_L615F_YF]	0.731
TVFSDYLHPQF [CCPG1_Y569_YF]	1.22
AIDDKYSRREE [SART1_Y685]	0.939
AGIKAYQSCLQ [ADGRA2_Y377_T375K]	0.983
YRASYYRRGDR [LTK_Y677]	0.485
YLELNYKEDEY [MME_Y502]	1.43
GIYEDYVEGLR [MYL6_Y89_T85I]	1.45
EILLSYPRTGY [TGM1_Y365_L366P]	0.789
ITRDEYPSNPM [CEMIP2_Y1015]	0.589

tested on: Fer (mouse); assay: as above

Sequence	phosphorylation enrichment
PIYEGYGLPHA [ACTA1_Y171_A172G]	20.9
PSALGYSPSLR [LLGL2_Y40]	0.512
IAAEFYDNLPH [DEGS1_Y284_YF]	1.12
EREFKYGAHKF [OAT_Y50_N54K_YF]	0.329
NLVSEYQQFQD [TUBB3_Y422_D417N_YF]	0.556
QFKGKYLAKHN [CASK_Y712_D710G_YF]	0.441
KRIKSYNQEND [RPGRIP1L_Y448_L447S]	0.416
IIQRAYRGHLL [SCN1A_Y1926_R1928G]	0.387
LFEDRYLLGPS [ASS1_Y87_T91P_YF]	0.634
KNDSIYVVKGN [KIT_Y823_N822I]	0.47
RRIHCYRGHLW [VHL_Y112_S111C]	0.66
GRGMPYGGRGD [TGM1_Y312_R307G]	0.399
CLNAIYQNNLT [GSR_Y158_R153C]	3.44
RKLVDYNSARH [BIN1_Y150_D151N]	0.419
GEDPIYVTLEG [RTKtide_2018]	3.86
RLLRGHDQYAY [HLA-B_Y137]	0.467
YTGNTYRVGDT [FN1_Y106]	0.415

Sequence	phosphorylation enrichment
LHSEAYLKYIE [PBRM1_Y1610]	0.665
VDGSVYELHPS [GCK_Y413_K414E]	16
EPGSLYGCGGG [ATM_Y2019_D2016G]	0.818
DTMQTYNGNDE [TSPAN7_Y131_A127T]	0.557
KKGMIYGGGGG [PSME1_Y249_T244K]	0.365
YNDSAYNQQLI [ZPLD1_Y198_T197A]	0.46
PKFHSYVSLPF [PLXNA2_Y293]	0.713
SIKDKYVTAFF [KCNH2_Y611_L615F_YF]	0.483
TVFSDYLHPQF [CCPG1_Y569_YF]	0.43
AIDDKYSRREE [SART1_Y685]	0.434
AGIKAYQSCLQ [ADGRA2_Y377_T375K]	0.424
YRASYYRRGDR [LTK_Y677]	0.496
YLELNYKEDEY [MME_Y502]	0.55
GIYEDYVEGLR [MYL6_Y89_T85I]	6.33
EILLSYPRTGY [TGM1_Y365_L366P]	0.49
ITRDEYPSNPM [CEMIP2_Y1015]	0.344
